The results in this text go back to the nanobody polyreactivity screen of Harvey et al. (2022).

A short description of this data set: yeast display, Sf9 membrane polyspecificity reagent, FACS + sequencing; frameworks hold sequencing errors. In outline:
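Using colony PCR, genes from sorted yeast display clones were amplified, then sequenced on MiSeq at 2 × 250 and filtered by CDR length. The clones had been stained with 10% biotinylated, detergent-solubilized Sf9 membrane reagent for 1 hour at 4 °C and sorted by FACS into low and high (top ~1%) gates on anti-HA and streptavidin fluorescence. Polyreactivity labels come from the gate of origin.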
As to “QVQLVESGGGLVQAGGSLRLSCAASGSTFAVNAMGWYRQAPGKERELVAAITSGGNTYADSVKGRFTISRDNAKNTVYLQMNSLKPEDTAVYYCAAALTEVVYWIYDYWGQGTQVTVSS”, the “polyreactivity (PSR sort gate)” value was “low polyreactivity”.
For the sequence “QVQLVESGGGLVQAGGSLRLSCAASGSTFAVYAMGWYRPAPGKERELVAGISSRGGRTYYADSVKGRFTISRDNAKNTVYLQMNSLKPEDTAVYYCAARFKGNPDRYGYWGQGTQVTVSS”, the “polyreactivity (PSR sort gate)” value was “high polyreactivity”.
Next, “QVQLVESGGGLVQAGGSLRLSCAASGSTFAVYGMGWYRQAPGKERELVAAISSSGARTYYADSVKGRFTISRDNAKNTVYLQMNSLKPEDTAVYYCAALPHRQAGYDYWGLGTQVTVSS”: “high polyreactivity”; “QVQLVESGGGLVQAGGSLRLSCAASGSTFAWNAMGWYRQAPGKERELVAAISKSGGSTYYADSVKGRFTISRDHAKNTVYLQMNSLTPEDTAVYYCAARGTVYRRYGGSRYDYWGQGTQVTVSS”: “high polyreactivity”; “QVQLVESGGGLVQAGGSLRLSCAASGSTFAWNVMGWYRQAPGKERELVAAISGRGGSTYYADSVKGRFTISRDNAKNTVYLQMNSLKPEDTAVYYCNKVYGRSRDVYDYDYWGQGTQVTVSS”: “high polyreactivity”.
As for “QVQLVESGGGLVQAGGSLRLSCAASGSTFAWYAMGWYRQAPGKERELVATISSSGVSTFYADSVKGRFTISRDNAKNTVYLQMNSLKPEDTAVYYCNRYGNSYYFAPGPLYNYWGQGTQVTVSS”, the “polyreactivity (PSR sort gate)” value is on record as “high polyreactivity”.
Turning to “QVQLVESGGGLVQAGGSLRLSCAASGSTFAYNALGWYRQAPGKERELVAAIDINDGNTYYADSVKGRFTISRDTAKNTVNLQINSLKPEDTAVYYCAAEYFYPYYGAMDYWGQGTQVTVSS”, the “polyreactivity (PSR sort gate)” value is on record as “low polyreactivity”.
Next, “QVQLVESGGGLVQAGGSLRLSCAASGSTFAYNAMGWYRQAPGKERELVAAIDINDGNTYYADSVKGRFTISRDNAKNTVYLQMNSLNPEDTAVYYCAAEGPYYLGLDGVKDDYWGQGTQVTVSS”: “low polyreactivity”; “QVQLVESGGGLVQAGGSLRLSCAASGSTFAYNAMGWYRQAPGKERELVAAISWGDGITYYADSVKGRFTISRDNAKNTVYLQMNSLKPEDTEVITRDFGYWGQGTQVTVSS”: “low polyreactivity”.
“QVQLVESGGGLVQAGGSLRLSCAASGSTFAYNAMGWYRQAPGKERELVARISSSGDITYYADSVKGRFTISRDNAKNTVYLQMNSLKPEDTAVYYCAKRYLTRYKGYYYWGQGTQVTVSS”: the “polyreactivity (PSR sort gate)” value is listed as “high polyreactivity”.
The result for “QVQLVESGGGLVQAGGSLRLSCAASGSTFAYNAMGWYRQAPGKERELVASITVSVGSTYYADSVKGRFTISRDNAKNTVYLQMNSLKPEDTAVYYCAARVTRRSSTYWVPRTGYYYWGQGTQVTVSS” reads “low polyreactivity”.
Next, “QVQLVESGGGLVQAGGSLRLSCAASGSTFAYNDMGWYRQAPWKERDLVADIRSGGNTNYADSVKGRFTISRDNAKNTVYLQMNILKPEDTAVYYCASDGYRIDVYHPDYRYDYWGQGTQVTVSS”: “low polyreactivity”; “QVQLVESGGGLVQAGGSLRLSCAASGSTFAYYAMGWYRHAPGKERELVAAISSGGSTYYADSVKGRFTISRDNAKNTVYLQMNSLKPEDTEVYYCNKLWVGKFKRYEFGYWGQGSQVTVSS”: “low polyreactivity”; “QVQLVESGGGLVQAGGSLRLSCAASGSTFAYYAMGWYRQAPGKERELVAAISRTGGSTYYADSVKGRFTISRDNAKNTVYLQMNSLKPEDNAVYYCNARGPVGTFDYDYWGQGTQVTVSS”: “low polyreactivity”.
Next, “QVQLVESGGGLVQAGGSLRLSCAASGSTFAYYAMGWYRQAPGKERELVAAITWSGGRTYYADSVKGRFTISRDNAKNTVYLQMNSLKPEDTAVYYCAAGQQHSLFRVPQYRNRAFYYWGQGTQVTVSS”: “high polyreactivity”; “QVQLVESGGGLVQAGGSLRLSCAASGSTFAYYAMGWYRQAPGKERELVARITASGGRTYYADSVKGRFTISRDNAKNTVYLQMNSLKPEDTAVYYCAKGRYVEVSYGAHYDYWGQGTQVTVSS”: “low polyreactivity”; “QVQLVESGGGLVQAGGSLRLSCAASGSTFAYYAMGWYRQAPGKERELVAVISVRGGSTYYADSVKGRFTISRDNAKNTVYLQMNSLKPEDTAVYYCAADTFAGYYYWGQGTQVTVSS”: “high polyreactivity”.
Consider “QVQLVESGGGLVQAGGSLRLSCAASGSTFAYYTMGWYREAPGKERELVAAISKSGGSTTYADSVKGRFTISRDNAKNTVYLQMNSLKPEDTAVYYCAAYDRVENYNYWGQGTQVTVSS”, for which the “polyreactivity (PSR sort gate)” value is recorded as “high polyreactivity”.
As to “QVQLVESGGGLVQAGGSLRLSCAASGSTFAYYTMGWYRPGPGKEREMVAAIRGGGRTYYADSVKGRFTISRDNAKNTVYLQMNSLKPEDTAVYYCAATVYVTKGYGYWGQGTQVTVSS”, the “polyreactivity (PSR sort gate)” value is listed as “high polyreactivity”.
As for “QVQLVESGGGLVQAGGSLRLSCAASGSTFAYYTMGWYRQAPGKERELVAAISRRGGSTYYADSVKGRFTISRDNAKNTVYLQMNSLKPEDTAVYYCAASFKGPGYYRYYYWGQGTQVTVSS”, the “polyreactivity (PSR sort gate)” value is “high polyreactivity”.
On to “QVQLVESGGGLVQAGGSLRLSCAASGSTFAYYTRGWYRQAPGKERELVAAITSGGRTSYADSVKGRFTISRDNAKNSVYLQMNSLKPEDTAVYYCAKGRKPGYYYWGQGTQVTVSS”, for which the “polyreactivity (PSR sort gate)” value is listed as “high polyreactivity”.
Turning to “QVQLVESGGGLVQAGGSLRLSCAASGSTFAYYVMGWYRQAPGKERELVAAITGTGGSTYYADSVKGRFTISRDNAKNTVYLQLNSLKPEDTAVYYCAAETPIYYGYWYDSWGQGTQVTVSS”, the “polyreactivity (PSR sort gate)” value was “high polyreactivity”.
The result for “QVQLVESGGGLVQAGGSLRLSCAASGSTFCTYAMGWYRQAPGKERELVAAITQRGASTYYADSVKGRFTISRDNAKNTVYLQMNSLKPEDTAVYYCAAYKRGRPEMDYWGQGTQVSVSS” reads “high polyreactivity”; that for “QVQLVESGGGLVQAGGSLRLSCAASGSTFDANAMGWSRQAPRKERELVATISDGGSTNYADSVKGRFTISSDNAKNTVYLQMISVKPEDTAVYYCAAVKLFLGLGFEYWGQGTQVTVSS”, “low polyreactivity”; that for “QVQLVESGGGLVQAGGSLRLSCAASGSTFDANAMGWYRQAPGKERELVAAISRSGGNTYYPDSVKGRFTISRDNAKNTVYLELNSLKPEDTAVYYCAADFRNAYYDRLDYWGQGTQVTVSS”, “low polyreactivity”.
With “QVQLVESGGGLVQAGGSLRLSCAASGSTFDAYAMGWYRQAPGKERELVAAITWSGGSTYYADSVKGRFTISRDNAKNTVYLEMNSLKPEDTAVYYCAADKLGELDYWGQGTQVTVSS”, the “polyreactivity (PSR sort gate)” value is on record as “low polyreactivity”.
Regarding “QVQLVESGGGLVQAGGSLRLSCAASGSTFDDYAMGWYRQAPGKERELVAAISRSDGSTSYADSVKGRFTISRDNAKNTVYLQMNSLKPEDTAVYYCAADPVFKDDLWPVRVRVDYWGQGTQVTVSS”, the “polyreactivity (PSR sort gate)” value is on record as “low polyreactivity”.
In the case of “QVQLVESGGGLVQAGGSLRLSCAASGSTFDFYAMGWYRQAPGKERELVAAITSGGTTNYADSVKGRFTISRDNAKNTVYLQINSLKPEDTAVYYCNAYYLGWYRVRAVTGYYYWGQGTQVTVSS”, the “polyreactivity (PSR sort gate)” value is listed as “low polyreactivity”.
As for “QVQLVESGGGLVQAGGSLRLSCAASGSTFDFYPMGWYRQAPGKERELVAAIRIGGNPNYADSVKGRLTISRDNAKNTVYLQLNSLKPEDTAVYYCARDDTYDTPLSPYDYWGQGTQVTVSS”, the “polyreactivity (PSR sort gate)” value is recorded as “low polyreactivity”.
Next, “QVQLVESGGGLVQAGGSLRLSCAASGSTFDGNAMGWYRPAPGKVRELVAAITRAGRTSYADSVKGRFTISRDNAKNTVYLQMNSLKPEDTAVYYCAKGGYDYWGQGTQVTVSS”: “low polyreactivity”; “QVQLVESGGGLVQAGGSLRLSCAASGSTFDGNAMGWYRQAPGKERELVAAISYSGGRTYYADSVKGRFTISRDNAKNTVYLQMNSLKPEDTAVYYCATVRPKYSASSYLAYSIFRYGYWGQGTQVTVSS”: “high polyreactivity”.
Take “QVQLVESGGGLVQAGGSLRLSCAASGSTFDGNVMGWYRQAPGKERELVADIDSGGSTNYADSVKGRFTISRDNAKNTVYLQMNSLKPEDTAVYYCKAEWDDSFIRWFRYRGNYWGQGTQVTVSS”: the “polyreactivity (PSR sort gate)” value is given as “low polyreactivity”.
Consider “QVQLVESGGGLVQAGGSLRLSCAASGSTFDHYAMGWYRQAPGKERELVAAITRSGGSTYYADSVKGRFTISRDNAKNTVYLQMNSLKPEDTAVYYCNARRWITSDYWGQGTQVTVSS”, for which the “polyreactivity (PSR sort gate)” value was “high polyreactivity”.
With “QVQLVESGGGLVQAGGSLRLSCAASGSTFDIYAMGWYRQAHGKERELVAVISGGEGSTYYADSVKGRFTISRDNAKNTVYLQMNSLKPEDTAVYYCAADYISPGYWDGEYDCWGQGTQVTVSS”, the “polyreactivity (PSR sort gate)” value is “low polyreactivity”.
With “QVQLVESGGGLVQAGGSLRLSCAASGSTFDIYAMGWYRQAPGKERELVAAIRGRGGSTYYADSVKGRFTISRDNAKNTVYFQMNSLKPEDTAVYYCAADSYATRYYYWGQGTQVTVSS”, the “polyreactivity (PSR sort gate)” value is reported as “high polyreactivity”.
Regarding “QVQLVESGGGLVQAGGSLRLSCAASGSTFDIYAMGWYRQAPGKEREMVAAIDFSGGSTYYADSVKGRFTISRDNAKNTVYLQMNSLKPEDTAVYYCAADVQKHFYSFGDERGFPFDYWGQATQVTVSS”, the “polyreactivity (PSR sort gate)” value is “low polyreactivity”.
As to “QVQLVESGGGLVQAGGSLRLSCAASGSTFDKYAMGWYRQAPGKERELVATISQSGASTYYADSVKGRFTISRDNAKNTVYFQMNSLKPEDTAVYYCAAAGGEQTKDYYYWGQGTQVTVSS”, the “polyreactivity (PSR sort gate)” value was “high polyreactivity”.
Next, “QVQLVESGGGLVQAGGSLRLSCAASGSTFDKYVMGWYRQAPGKERELVAVIDWRDGTTYYADSVKGRFTISRDNAKNTVYLQMNSLKPEDTAVYYCNADNDNYGDVYPYYTAGYGYWGQGTQVTVSS”: “low polyreactivity”.
Turning to “QVQLVESGGGLVQAGGSLRLSCAASGSTFDLNAMGWYRQAPGKERELVARITSSTGRTFYADSVKGRFTISRDNAKNTVYLQMNSLKPEDTAVYYCAKDHASYSYWPSVLPYDHWGQGTQVTVSS”, the “polyreactivity (PSR sort gate)” value is given as “low polyreactivity”.
The result for “QVQLVESGGGLVQAGGSLRLSCAASGSTFDNNAMGWYRQAPGKERELVAAISWGGGSTYYADSVKGRFTISRDNAKNTVYLQMNSLKPEDTAVYYCAKLKGTQPNRYDYWGQGTQVTVSS” reads “low polyreactivity”.
